This is an account of results in publication PMC4019489 (Molecular Biology of the Cell, 2014).

This data set concerns the molecule itself. In words: SEC.

B1: soluble, C-terminally His-tagged extracellular domain of WT JAM-A (junctional adhesion molecule-A) (domain or fragment, UniProt Q9Y624 28-238, looked up)
chain: SVTVHSSEPEVRIPENNPVKLSCAYSGFSSPRVEWKFDQGDTTRLVCYNNKITASYEDRVTFLPTGITFKSVTREDTGTYTCMVSEEGGNSYGEVKVKLIVLVPPSKPTVNIPSSATIGNRAVLTCSEQDGSPPSEYTWFKDGIVMPTNPKSTRAFSNSSYVLNPTTGELVFDPLSASDTGEYSCEARNGYGTPMTSNAVRMEAVERNVGV
For B1, the stoichiometry N – broadly, a count of units in the complex or per binding partner – came to 2.
